Data from the RNAGym collection of RNA variant scans (doi:10.1093/molbev/msab373).

B1: Azoarcus group I ribozyme (parent)
chain: GUGCCUUGCGCCGGGAAACCACGCAAGGGAUGGUGUCAAAUUCGGCGAAACCUAAGCGCCCGCCCGGGCGUAUGGCAACGCCGAGCCAAGCUUCGGCGCCUGCGCCGAUGAAGGUGUAGAGACUAGACGGCACCCACCUAAGGCAAACGCUAUGGUGAAGGCAUAGUCCAGGGAGUGGCGAAAGUCACACAAACCGG

Variants of: B1
Test: reverse-splicing fitness (ratio to wild type); higher = more active; in vitro selection; Mg2+ level not given
In short: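 An in vitro group I ribozyme library with randomized positions was T7-transcribed and gel-purified. In triplicate, 10 pmol RNA in EPPS pH 7.5 was reacted with 50 pmoles of a 30-nt RNA substrate for 1 h at 37 °C across several added MgCl2 levels (1–48 mM), then stopped with EDTA. Products were reverse transcribed from a substrate-complementary primer, PCR-amplified and sequenced (HiSeq 4000). Fitness is a variant's read proportion after selection over that before, normalised to wild type.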

Variant	reverse-splicing fitness
C82U A111U A120G C169A U176C	0.0221
C82U A111U A120G C169A U176G	0.00417
C82U A111U A120G C169A U176A	0.0178
C82U A111U A120G A145U C150U C169G U176C	0.0134
C82U A111U A120G A145U C150U C169G U176G	0.00463
C82U A111U A120G A145U C150U C169G U176A	0.0119
C82U A111U A120U A145C C169G U176G	0.0016
C82U A111U A120U A145C C169G U176A	0.00238
C82U A111U A120U A145C C169G U176C	0.00221
C82U A111U A120U A145U C169A	0.00251
C82U A111U A120U A145U C169G	0.00303
C82U A111U A120U A145U C169U	0.0039
C82U A111U A120G A145U C150U C169A	0.00897
C82U A111U A120G A145U C150U C169G	0.00885
C82U A111U A120G A145U C150U C169U	0.00788
C82U A111U A120U A145G C150G C169U U176C	0.0058
C82U A111U A120U A145G C150G C169U U176G	0.00345
C82U A111U A120U A145G C150G C169U U176A	0.00611
C82U A111U A120U A145G U176A	0.00732
C82U A111U A120U A145G U176G	0.00331
C82U A111U A120U A145G U176C	0.0112

Variant	reverse-splicing fitness
C82U A111U A120U A145G C150U C169A	0.00562
C82U A111U A120U A145G C150U C169U	0.00435
C82U A111U A120U A145G C150U C169G	0.0051
C82U A111U A120U C150G C169U U176C	0.00377
C82U A111U A120U C150G C169U U176G	0.00264
C82U A111U A120U C150G C169U U176A	0.00294
C82U A111U A120G C150A C169G U176G	0.00529
C82U A111U A120G C150A C169G U176A	0.0221
C82U A111U A120G C150A C169G U176C	0.0213
C82U A111U A120U A145G C150G C169G U176C	0.00477
C82U A111U A120U A145G C150G C169G U176A	0.00749
C82U A111U A120U A145G C150G C169G U176G	0.00365
C82U A111U A120U A145C C150U U176C	0.00469
C82U A111U A120U A145C C150U U176A	0.00399
C82U A111U A120U A145C C150U U176G	0.0026
C82U A111U A120G A145U C150U U176C	0.013
C82U A111U A120G A145U C150U U176G	0.00443
C82U A111U A120G A145U C150U U176A	0.00953
C82U A111U A120U A145U C150U U176G	0.00324
C82U A111U A120U A145U C150U U176A	0.00665
C82U A111U A120U A145U C150U U176C	0.00855

Variant	reverse-splicing fitness
C82U A111U A120U A145C C150G C169U	0.00284
C82U A111U A120U A145C C150G C169A	0.00266
C82U A111U A120U A145C C150G C169G	0.00307
C82U A111U A120G C150G C169A U176C	0.00855
C82U A111U A120G C150G C169A U176A	0.00906
C82U A111U A120G C150G C169A U176G	0.00664
C82U A111U A120U A145G C150A C169U U176A	0.00439
C82U A111U A120U A145G C150A C169U U176C	0.00345
C82U A111U A120U A145G C150A C169U U176G	0.00228
C82U A111U A120U A145G C150U C169G U176C	0.00383
C82U A111U A120U A145G C150U C169G U176A	0.00606
C82U A111U A120U A145G C150U C169G U176G	0.00243
C82U A111U A120U C150G C169G U176G	0.00254
C82U A111U A120U C150G C169G U176C	0.00263
C82U A111U A120U C150G C169G U176A	0.00411
C82U A111U A120G A145U C150U C169U U176G	0.00432
C82U A111U A120G A145U C150U C169U U176C	0.0139
C82U A111U A120G A145U C150U C169U U176A	0.0203
C82U A111U A120U A145G C169A U176A	0.00289
C82U A111U A120U A145G C169A U176G	0.00171
C82U A111U A120U A145G C169A U176C	0.00291

Variant	reverse-splicing fitness
C82U A111U A120G C150G C169G U176C	0.00449
C82U A111U A120G C150G C169G U176A	0.00605
C82U A111U A120G C150G C169G U176G	0.00425
C82U A111U A120U A145C C150A C169G U176G	0.00189
C82U A111U A120U A145C C150A C169G U176A	0.00269
C82U A111U A120U A145C C150A C169G U176C	0.00255
C82U A111U A120U A145G C150A U176G	0.00271
C82U A111U A120U A145G C150A U176C	0.00627
C82U A111U A120U A145G C150A U176A	0.00691
C82U A111U A120U C150A C169U	0.00428
C82U A111U A120U C150A C169G	0.0044
C82U A111U A120U C150A C169A	0.00469
C82U A111U A120G C150U C169U U176A	0.0214
C82U A111U A120G C150U C169U U176C	0.0158
C82U A111U A120G C150U C169U U176G	0.00647
C82U A111U A120U A145C C150G C169U U176A	0.00255
C82U A111U A120U A145C C150G C169U U176G	0.00218
C82U A111U A120U A145C C150G C169U U176C	0.0022
C82U A111U A120U A145U C150U C169G U176A	0.00276
C82U A111U A120U A145U C150U C169G U176G	0.00202
C82U A111U A120U A145U C150U C169G U176C	0.00317
